Assays:
[1] = molecular target: cynomolgus monkey PCSK9 (cynomolgus monkey); test: BIAcore, antibody immobilised, pH 7.4
[2] = molecular target: cynomolgus monkey PCSK9 (cynomolgus monkey); test: KinExA solution equilibrium
[3] = molecular target: cynomolgus monkey PCSK9 (cynomolgus monkey); test: BIAcore solution equilibrium, % free cPCSK9 against [21B12]; third of four curves; cPCSK9 concentration not given
[4] = molecular target: cynomolgus monkey PCSK9 (cynomolgus monkey); test: BIAcore solution equilibrium, % free cPCSK9 against [21B12]; rightmost of four curves; cPCSK9 concentration not given
[5] = molecular target: cynomolgus monkey PCSK9 (cynomolgus monkey); test: BIAcore solution equilibrium, % free cPCSK9 against [21B12]; second of four curves; cPCSK9 concentration not given
[6] = molecular target: cynomolgus monkey PCSK9 (cynomolgus monkey); test: BIAcore solution equilibrium
[7] = molecular target: cynomolgus monkey PCSK9 (cynomolgus monkey); test: BIAcore solution equilibrium, % free cPCSK9 against [21B12]; leftmost of four curves; cPCSK9 concentration not given
[8] = molecular target: cynomolgus monkey PCSK9 (cynomolgus monkey); test: BIAcore solution equilibrium, column To Cyno PCSK9

Row | Kd [1] [pM] | Kd [2] [pM] | IC50 (read off the curve) [3] [pM] | IC50 (read off the curve) [4] [pM] | IC50 (read off the curve) [5] [pM] | Kd [6] [pM] | IC50 (read off the curve) [7] [pM] | Kd [8] [pM] | Binder
1 | 870 | 16 |  |  |  |  |  |  | 16F12, anti-PCSK9 huIgG4 (antibody, V domains shown) VH: QVHLVESGGGVVQPGRSLRLSCAASGFTFNSFGMHWVRQAPGKGLEWVALIWSDGSDEYYADSVKGRFTISRDNSKNTLYLQMNSLRAEDTAVYYCARAIAALYYYYGMDVWGQGTTVTVSS VL: QSVLTQPPSVSAAPGQKVTISCSGSSSNIGNNFVSWYQQLPGTAPKLLIYDYNKRPSGIPDRFSGSKSGTSATLGITGLQTGDEADYYCGTWDSSLSAYVFGTGTRVTVLQ
2 | 360 |  | 90 | 200 | 30 | 11 | 20 |  | 21B12, anti-PCSK9 huIgG4 (antibody, V domains shown) VH: QVQLVQSGAEVKKPGASVKVSCKASGYTLTSYGISWVRQAPGQGLEWMGWVSFYNGNTNYAQKLQGRGTMTTDPSTSTAYMELRSLRSDDTAVYYCARGYGMDVWGQGTTVTVSS VL: QSALTQPASVSGSPGQSITISCTGTSSDVGGYNSVSWYQQHPGKAPKLMIYEVSNRPSGVSNRFSGSKSGNTASLTISGLQAEDEADYYCNSYTSTSMVFGGGTKLTVLQ
3 |  |  |  |  |  |  |  | 120 | 23B5 (antibody, V domains shown) VH: EVQLLESGGGLVQPGGSLRLSCAASGFTFSSYAMNWVRQAPGKGLEWVSTISGSGDNTYYADSVKGRFTISRDNSKNTLYLQMNSLRAEDTAVYYCAKKFVLMVYAMLDYWGQGTLVTVSS VL: DILMTQSPSSLSASVGDRVTITCRASQSISSYLNWYQQKPGKAPKVLIYAASSLQSGVPSRFSGSGSGTDFTLTINSLQPEDFATYYCQQSYSSPITFGQGTRLEIK

Source: US20130072665A1
